# Target: tetrodotoxin (TTX)-resistant variant of sodium channel Nav1.6
# Test: cell-based or functional assay
substance,measurement,value
full-length FHF2A protein (from UniProt Q92913 1-245),"channels not recovering from inactivation within 20 msec (two-pulse whole cell voltage clamp, FIG. 2) (fraction of channels)",0.33
same,"percent of channels undergoing long-term inactivation (voltage dependence protocol, FIG. 4)",35 to 40%
